Test results as given in patent US20250243260A1 (ALPINE IMMUNE SCIENCES, published 2025).
Changes are numbered by the printed parent chain. Numbers in names are those of the source.

B1: CD80-Fc-CD80_341 (Fc fusion)
chain: VIHVTKEVKEYATLSCGHNVSVEELAQTRIYWQKDKKMVLTMMSGDMNIWPEYKNRTIFDITNNLSIVILALRPSDEGTYECVVLKQEKDAFKREHLAEVRLSVKADGSGGGGSPCPPCPAPEFLGGPSVFLFPPKPKDTLMISRTPEVTCVVVDVSQEDPEVQFNWYVDGVEVHNAKTKPREEQFNSTYRVVSVLTVLHQDWLNGKEYKCKVSNKGLPSSIEKTISKAKGQPREPQVYTLPPSQEEMTKNQVSLTCLVKGFYPSDIAVEWESNGQPENNYKTTPPVLDSDGSFFLYSRLTVDKSRWQEGNVFSCSVMHEALHNHYTQKSLSLSLGGGGGSGGGGSGGGGSVIHVTKEVKEYATLSCGYNVSVEELAQTRIYWQKDKKMVLTMMSGDMNIWPEYKNRTIFDITNNLSIVILALRPSDEGTYECVVLKQEKDAFKREHLAEVRLSVKAD
notes: also called CD80_197 V11Y/E35D/Y87Q/T101R barbell
B2: CD80-Fc-CD80_339 (Fc fusion)
chain: B1 chain with T28Y, D35E, M47L, Q87Y, R101T, T379Y, D386E, M398L, Q438Y, R452T
notes: also called CD80_185 V11Y/T28Y/M47L barbell
B3: CD80-Fc-CD80_338 (Fc fusion)
chain: VIHVTKEVKGWATLSCGHNVSVEELAQYRIYWQKEKKMVLTMMSGDLNIWPEYKNRTIFDITNNLSIVILALRPSDEGTYECVVLKYEKDAFKREHLAEVTLSVKADGSGGGGSDKTHTCPPCPAPEAEGAPSVFLFPPKPKDTLMISRTPEVTCVVVDVSHEDPEVKFNWYVDGVEVHNAKTKPREEQYNSTYRVVSVLTVLHQDWLNGKEYKCKVSNKALPAPIEKTISKAKGQPREPQVYTLPPSRDELTKNQVSLTCLVKGFYPSDIAVEWESNGQPENNYKTTPPVLDSDGSFFLYSKLTVDKSRWQQGNVFSCSVMHEALHNHYTQKSLSLSPGGGGGSGGGGSGGGGSVIHVTKEVKGWATLSCGYNVSVEELAQYRIYWQKEKKMVLTMMSGDLNIWPEYKNRTIFDITNNLSIVILALRPSDEGTYECVVLKYEKDAFKREHLAEVTLSVKAD
B4: CD80-Fc-CD80_339 (CD80_185 V11Y/T28Y/M47L) (Fc fusion)
chain: B1 chain with T28Y, D35E, M47L, Q87Y, R101T, T379Y, D386E, M398L, Q438Y, R452T
notes: tetravalent
B5: CD80-Fc-CD80_341 (CD80_197 V11Y/E35D/Y87Q/T101R) (Fc fusion)
chain: B1 chain
notes: tetravalent
B6: CD80-Fc-CD80_338 (CD80_180 E10G/V11W/T28Y/M47L, IgG1 Fc) (Fc fusion)
chain: B3 chain
notes: tetravalent

target: T1, human CD28 on cells (human, UniProt P10747 19-220); assay: cell-based or functional assay

Molecule | Rel. Luminescence Units (RLU) at 2 nM, K562/OKT3/PD-L1 + Jurkat/IL-2 reporter [RLU] | Rel. Luminescence Units (RLU) at 10 nM, K562/OKT3/PD-L1 + Jurkat/IL-2 reporter [RLU] | Rel. Luminescence Units (RLU) at 50 nM, K562/OKT3/PD-L1 + Jurkat/IL-2 reporter [RLU] | Rel. Luminescence Units (RLU) at 250 nM, K562/OKT3/PD-L1 + Jurkat/IL-2 reporter [RLU] | Fold Increase over WT at 50 nM [fold]
WT CD80 ECD-Fc IgG4 (Fc fusion) | 2830 | 2660 | 2440 | 2640 | –
B1 | 13100 | 16000 | 15700 | 15200 | 6.42

target: human CTLA-4 (human) (UniProt P16410); assay: flow cytometry on CHO/CTLA-4 cells
Sequence (P16410 36-223): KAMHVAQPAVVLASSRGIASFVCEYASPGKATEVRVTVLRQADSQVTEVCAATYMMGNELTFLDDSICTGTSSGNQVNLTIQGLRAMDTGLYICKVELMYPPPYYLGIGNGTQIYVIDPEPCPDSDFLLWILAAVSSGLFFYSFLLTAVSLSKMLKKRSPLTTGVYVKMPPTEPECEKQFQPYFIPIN

Molecule | MFI at 0.8 nM [MFI] | MFI at 4 nM [MFI] | MFI at 20 nM [MFI] | MFI at 100 nM [MFI] | fold change vs WT CD80 at 20 nM [fold]
CD80_168 variant CD80 IgV-Fc (K9N, E10G, N63S, L85E) (Fc fusion) | 415 | 631 | 830 | 3160 | 0

target: human CD28 (endogenously expressed on primary human T cells) (human) (UniProt P10747); assay: flow cytometry, primary human T cells

Molecule | MFI (anti-human Fc) at 0.8 nM [MFI] | MFI (anti-human Fc) at 4 nM [MFI] | MFI (anti-human Fc) at 20 nM [MFI] | MFI (anti-human Fc) at 100 nM [MFI] | fold change of MFI vs WT CD80 at 20 nM [fold]
CD80_201-Fc, variant CD80 IgV-Fc E10G/H18Y/T28Y/M47W/T62S (Fc fusion) | 199 | 201 | 254 | – | –
CD80_227-Fc, variant CD80 IgV-Fc V11W/T28H/D46Q/V68L/L85E (Fc fusion) | 193 | 209 | 224 | 283 | 1.2
CD80_194-Fc, variant CD80 IgV-Fc V11Y/M42W/T62A (Fc fusion) | 245 | 246 | 262 | 298 | 1.5
CD80_181-Fc, variant CD80 IgV-Fc K9S/E10R/V11Y/M47L/A71G (Fc fusion) | – | 212 | – | 313 | –
wild-type CD80 ECD-Fc (unmodified CD80 ECD fused to IgG4 Fc) (Fc fusion) | 178 | 168 | 180 | 184 | –
CD80_223-Fc, variant CD80 IgV-Fc E10S/V68M/Y87P (Fc fusion) | 190 | 195 | 223 | 318 | 1.2
CD80_188-Fc, variant CD80 IgV-Fc E35D/V68L/L85E (Fc fusion) | 201 | 191 | 224 | – | –
CD80_196-Fc, variant CD80 IgV-Fc V11Y/M42W/E52K/T62A/L85E (Fc fusion) | 245 | 247 | 274 | 301 | 1.5

target: T2, human CTLA-4 on CHO cells (human, UniProt P16410 36-223); assay: flow cytometry, CHO/CTLA-4 cells
T2 construct: whole, on cells; also called CHO/CTLA-4
Method: (§1) Binding affinity to CD28 was determined using primary human T cells which endogenously express CD28. Binding to PD-L1 was determined using SCC152 cells transduced with human PD-L1. Binding to CTLA-4 was measured using Chinese hamster ovary (CHO) cells stably transduced to express human CTLA-4.
(§2) For staining and analysis by flow cytometry, 75,000 human T cells, SCC152/PD-L1 cells, or CHO/CTLA-4 cells were plated in 96-well round-bottom plates. Cells were spun down and resuspended in staining buffer (PBS (phosphate buffered saline), 1% BSA (bovine serum albumin), 1 mM EDTA, and 0.1% sodium azide) for 20 minutes to block non-specific binding. Afterwards, cells were centrifuged, stain buffer aspirated, and then resuspended in 50 μL of a 1:5 serial dilution of each CD80-Fc candidate variant starting at 100 nM ending at 0.8 nM. Primary staining was performed on ice for 60 minutes, before washing cells in […] staining buffer three times. PE-conjugated anti-human Fc (Jackson ImmunoResearch, USA) was diluted 1:250 in 50 μL staining buffer and added to cells and incubated another 30 minutes at 4° C. Cells were washed two times in 150 μL stain buffer and then fixed in 2% formaldehyde/PBS for 5 minutes at room temperature. Samples were analyzed CytoFLEX LX flow cytometer (Beckman Coulter, USA). Median Fluorescence Intensity (MFI) was calculated for each cell type using the CytExpert software from Beckman Coulter.
(§3) Binding assays were carried out to assess the specificity and affinity of multivalent proteins to cell-expressed CTLA-4, CD28, and PD-L1 counter structures.

T2 sequence (P16410 36-223): as above

Molecule | Anti-Human Fc (MFI) at 0.8 nM [MFI] | Anti-Human Fc (MFI) at 4 nM [MFI] | Anti-Human Fc (MFI) at 20 nM [MFI] | Anti-Human Fc (MFI) at 100 nM [MFI] | Fold change vs WT CD80 @20 nM [fold]
B2 | 210000 | 305000 | 322000 | 320000 | –
B1 | 206000 | 280000 | 297000 | 282000 | 0.36
B3 | 367000 | 439000 | 470000 | 511000 | –

target: T1, human CD28 on cells; assay: flow cytometry, primary human T cells
Method: as §1, §2, §3

Molecule | Anti-Human Fc (MFI) at 0.8 nM [MFI] | Anti-Human Fc (MFI) at 4 nM [MFI] | Anti-Human Fc (MFI) at 20 nM [MFI] | Anti-Human Fc (MFI) at 100 nM [MFI] | Fold change vs WT CD80 @20 nM [fold]
WT CD80 ECD-Fc IgG4 (Fc fusion) | 178 | 168 | 180 | 184 | –
B2 | 520 | 793 | 1020 | 1380 | –
B1 | 676 | 1070 | 1410 | 1740 | 7.8
B3 | 552 | 926 | 1350 | 2330 | –

target: T3, human PD-L1 (human, UniProt Q9NZQ7 19-290); assay: flow cytometry, SCC152 cells transduced with human PD-L1, anti-human Fc detection
T3 construct: whole, on cells
Method: as §1, §2, §3

T3 sequence (Q9NZQ7 19-290): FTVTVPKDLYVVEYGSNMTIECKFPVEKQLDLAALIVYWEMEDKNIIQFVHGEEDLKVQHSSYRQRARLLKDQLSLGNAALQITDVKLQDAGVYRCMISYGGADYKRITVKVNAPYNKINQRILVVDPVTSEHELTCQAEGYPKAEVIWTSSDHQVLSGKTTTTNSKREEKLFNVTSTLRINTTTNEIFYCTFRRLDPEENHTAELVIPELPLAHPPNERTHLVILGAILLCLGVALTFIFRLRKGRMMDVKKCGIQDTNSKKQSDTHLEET

Molecule | Anti-Human Fc (MFI) at 0.8 nM [MFI] | Anti-Human Fc (MFI) at 4 nM [MFI] | Anti-Human Fc (MFI) at 20 nM [MFI] | Anti-Human Fc (MFI) at 100 nM [MFI]
B4 | 4180 | 6180 | 7120 | 8090
B5 | 4750 | 6410 | 7100 | 7810
B6 | 6250 | 9300 | 11000 | 12500

target: T3, human PD-L1; assay: flow cytometry, SCC152 cells transduced with human PD-L1; MFI against WT CD80 ECD-Fc
Method: as §1, §2, §3

Molecule | Fold change vs WT CD80 @20 nM [fold]
B4 | 10.4
B5 | 10.4
B6 | 16.2
